{"source": "paper PMC3543441", "key": {"[1]": {"target": "C-terminal truncated Entamoeba histolytica ornithine decarboxylase (EhODCΔ15) (Entamoeba histolytica)", "assay": "SEC; HiLoad 16/60 Superdex 200, purified protein at 5 mg/ml injected, 0.5 ml/min; elution compared with Gel Filtration HMW Calibration kit markers; eluted at 74 ml"}, "[2]": {"target": "C-terminal truncated Entamoeba histolytica ornithine decarboxylase (EhODCΔ15) (Entamoeba histolytica)", "assay": "crystal structure; sitting drop, 20% PEG 3350, 0.2 M LiCl, pH 6.8, 20°C; P212121, four molecules per asymmetric unit; molecular replacement with human ODC (PDB 2ON3); apo-enzyme"}}}
{"substance": "C-terminal truncated Entamoeba histolytica ornithine decarboxylase (EhODCΔ15) (enzyme)", "values": [{"measurement": "stoichiometry N", "setting": "[1]", "result": 2}, {"measurement": "stoichiometry N", "setting": "[2]", "result": 4}]}
